Measured values as given in paper PMC5587741, “CLEC14a-HSP70-1A interaction regulates HSP70-1A-induced angiogenesis” (Scientific Reports, 2017).

Target: T1, recombinant human HSP70-1A (rhHSP70-1A) (human, UniProt P0DMV8 1-641)
T1 construct: commercially available purified recombinant human HSP70-1A (HSPA1A); source: bought: Sino Biological Inc
Experiment: BLI; Octet RED96; rhCLEC14a-ECD immobilised on amine-reactive biosensors; rhHSP70-1A 200-25 nM in 2-fold dilutions in 1x kinetics buffer; 1:1 binding model
Details: both partners purified

T1 sequence (P0DMV8 whole entry): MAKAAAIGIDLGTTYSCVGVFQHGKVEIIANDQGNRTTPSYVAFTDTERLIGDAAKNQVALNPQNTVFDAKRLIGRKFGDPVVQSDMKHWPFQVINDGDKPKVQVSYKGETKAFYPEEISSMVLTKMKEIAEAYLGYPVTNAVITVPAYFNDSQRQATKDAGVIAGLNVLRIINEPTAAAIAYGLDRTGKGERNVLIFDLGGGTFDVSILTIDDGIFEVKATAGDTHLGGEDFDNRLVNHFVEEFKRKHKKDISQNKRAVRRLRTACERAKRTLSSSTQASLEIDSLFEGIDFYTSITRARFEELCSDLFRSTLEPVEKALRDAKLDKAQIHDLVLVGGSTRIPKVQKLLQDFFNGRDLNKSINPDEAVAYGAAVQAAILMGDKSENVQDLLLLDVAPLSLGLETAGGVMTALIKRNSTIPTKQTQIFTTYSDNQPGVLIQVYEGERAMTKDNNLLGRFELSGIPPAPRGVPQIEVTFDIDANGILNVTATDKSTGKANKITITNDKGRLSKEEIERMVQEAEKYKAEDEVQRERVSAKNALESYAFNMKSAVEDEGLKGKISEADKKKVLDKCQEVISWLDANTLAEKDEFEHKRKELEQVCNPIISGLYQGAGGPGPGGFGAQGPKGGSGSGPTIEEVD

Kd: ~8 nM
B1: recombinant human CLEC14a extracellular domain (rhCLEC14a-ECD) (domain or fragment, UniProt Q86T13 22-397, looked up)
chain: EHPTADRAGCSASGACYSLHHATMKRQAAEEACILRGGALSTVRAGAELRAVLALLRAGPGPGGGSKDLLFWVALERRRSHCTLENEPLRGFSWLSSDPGGLESDTLQWVEEPQRSCTARRCAVLQATGGVEPAGWKEMRCHLRANGYLCKYQFEVLCPAPRPGAASNLSYRAPFQLHSAALDFSPPGTEVSALCRGQLPISVTCIADEIGARWDKLSGDVLCPCPGRYLRAGKCAELPNCLDDLGGFACECATGFELGKDGRSCVTSGEGQPTLGGTGVPTRRPPATATSPVPQRTWPIRVDEKLGETPLVPEQDNSVTSIPEIPRWGSQSTMSTLQMSLQAESKATITPSGSVISKFNSTTSSATPQAFDSSSA
notes: commercially available purified recombinant human CLEC14a extracellular domain; source: bought: Abcam
